Results published in PMC5026484.
pKd: −log10 of the molar value.

Columns and labels:
[1] = target: bMERB domain (Rab binding domain) of Mical-cL, residues 534-683 (human) (UniProt O94851); experiment: ITC; iTC200, 25°C; 400 µM Rab titrated into 20–40 µM bMERB domain in the cell; 20 mM Hepes pH 7.5, 50 mM NaCl, 2 mM MgCl2, 1 mM TCEP
Slac2-a/melanophilin = Slac2-a/melanophilin (UniProt Q91V27); settings: cited from earlier work
Slp2-a = Slp2-a (UniProt Q99N50); settings: cited from earlier work
Chain of Slp2-a (Q99N50 whole entry): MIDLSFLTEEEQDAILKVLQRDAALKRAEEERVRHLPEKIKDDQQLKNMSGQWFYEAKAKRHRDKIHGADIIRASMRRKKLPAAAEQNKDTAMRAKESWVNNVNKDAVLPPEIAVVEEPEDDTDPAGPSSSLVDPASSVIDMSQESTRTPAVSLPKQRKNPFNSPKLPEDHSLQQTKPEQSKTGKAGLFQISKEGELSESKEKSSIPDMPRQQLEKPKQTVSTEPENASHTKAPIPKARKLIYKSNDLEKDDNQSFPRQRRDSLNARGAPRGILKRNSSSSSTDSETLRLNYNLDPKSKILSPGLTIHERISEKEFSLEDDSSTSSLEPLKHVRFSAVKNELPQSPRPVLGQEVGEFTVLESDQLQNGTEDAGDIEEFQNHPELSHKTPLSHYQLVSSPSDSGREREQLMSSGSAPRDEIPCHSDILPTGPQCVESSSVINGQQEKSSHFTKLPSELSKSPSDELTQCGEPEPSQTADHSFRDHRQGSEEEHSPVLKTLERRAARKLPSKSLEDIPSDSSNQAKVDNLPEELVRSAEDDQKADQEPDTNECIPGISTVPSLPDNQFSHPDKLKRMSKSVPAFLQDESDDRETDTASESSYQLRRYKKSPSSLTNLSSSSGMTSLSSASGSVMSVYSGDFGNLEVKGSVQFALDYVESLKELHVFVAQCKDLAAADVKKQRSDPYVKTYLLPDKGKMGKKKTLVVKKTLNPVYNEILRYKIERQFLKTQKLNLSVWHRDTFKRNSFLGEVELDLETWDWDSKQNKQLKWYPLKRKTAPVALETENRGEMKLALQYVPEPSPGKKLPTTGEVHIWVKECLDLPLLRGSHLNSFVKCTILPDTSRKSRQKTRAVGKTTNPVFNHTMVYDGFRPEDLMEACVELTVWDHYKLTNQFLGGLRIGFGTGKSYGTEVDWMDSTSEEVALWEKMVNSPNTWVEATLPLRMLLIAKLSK

Chain of Rab27 (Q9ERI2 2-221): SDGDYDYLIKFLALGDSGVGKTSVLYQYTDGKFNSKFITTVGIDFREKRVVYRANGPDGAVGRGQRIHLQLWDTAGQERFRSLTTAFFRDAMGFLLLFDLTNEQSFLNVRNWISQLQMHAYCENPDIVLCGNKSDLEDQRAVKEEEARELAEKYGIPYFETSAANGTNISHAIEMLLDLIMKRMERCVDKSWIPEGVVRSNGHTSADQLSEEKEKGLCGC
Chain of Slac2-a/melanophilin (Q91V27 whole entry): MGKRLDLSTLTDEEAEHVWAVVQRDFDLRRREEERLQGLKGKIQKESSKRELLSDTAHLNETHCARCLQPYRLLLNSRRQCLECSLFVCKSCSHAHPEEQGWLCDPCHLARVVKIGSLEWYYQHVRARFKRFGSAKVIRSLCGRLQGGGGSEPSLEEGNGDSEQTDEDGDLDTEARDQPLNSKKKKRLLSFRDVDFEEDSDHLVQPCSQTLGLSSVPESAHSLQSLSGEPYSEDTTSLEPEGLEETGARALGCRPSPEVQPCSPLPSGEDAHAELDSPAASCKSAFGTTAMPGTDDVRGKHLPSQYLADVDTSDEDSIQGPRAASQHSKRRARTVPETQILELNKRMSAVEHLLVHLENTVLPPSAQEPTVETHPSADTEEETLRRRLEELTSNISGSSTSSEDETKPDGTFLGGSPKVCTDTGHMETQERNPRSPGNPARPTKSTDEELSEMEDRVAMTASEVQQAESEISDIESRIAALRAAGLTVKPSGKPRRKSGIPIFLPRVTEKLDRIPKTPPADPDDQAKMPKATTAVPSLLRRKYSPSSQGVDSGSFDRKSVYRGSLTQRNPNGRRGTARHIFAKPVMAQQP
Chain of bMERB domain (Rab binding domain) of Mical-cL, residues 534-683 (human) (O94851 1796-1945): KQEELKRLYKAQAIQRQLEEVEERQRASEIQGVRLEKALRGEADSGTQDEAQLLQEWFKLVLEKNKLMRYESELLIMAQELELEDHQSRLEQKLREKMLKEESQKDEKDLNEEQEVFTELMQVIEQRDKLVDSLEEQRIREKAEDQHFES

pKd [1]	Substance	pKd (Slac2-a/melanophilin)	pKd (Slp2-a)
5.96	Rab1R8N, chimera of Rab1b with the 4 N-terminal residues of Rab8 (from UniProt Q9H0U4 5-201) (natural protein)	–	–
–	Rab27 (from UniProt Q9ERI2)	6.95	7.87
